From patent US20260250420A1 (SICHUAN KELUN BIOTECH BIOPHARMACEUTICAL, published 2026)

Assays:
[1] = molecular target: T1, human PTK7 on cells (tumor cells endogenously expressing PTK7); CHO-hPTK7, CHO-S-hPTK7 and 293T-hPTK7 … (human, UniProt Q13308 31-1070); assay: cell-based or functional assay
T1 sequence (looked up): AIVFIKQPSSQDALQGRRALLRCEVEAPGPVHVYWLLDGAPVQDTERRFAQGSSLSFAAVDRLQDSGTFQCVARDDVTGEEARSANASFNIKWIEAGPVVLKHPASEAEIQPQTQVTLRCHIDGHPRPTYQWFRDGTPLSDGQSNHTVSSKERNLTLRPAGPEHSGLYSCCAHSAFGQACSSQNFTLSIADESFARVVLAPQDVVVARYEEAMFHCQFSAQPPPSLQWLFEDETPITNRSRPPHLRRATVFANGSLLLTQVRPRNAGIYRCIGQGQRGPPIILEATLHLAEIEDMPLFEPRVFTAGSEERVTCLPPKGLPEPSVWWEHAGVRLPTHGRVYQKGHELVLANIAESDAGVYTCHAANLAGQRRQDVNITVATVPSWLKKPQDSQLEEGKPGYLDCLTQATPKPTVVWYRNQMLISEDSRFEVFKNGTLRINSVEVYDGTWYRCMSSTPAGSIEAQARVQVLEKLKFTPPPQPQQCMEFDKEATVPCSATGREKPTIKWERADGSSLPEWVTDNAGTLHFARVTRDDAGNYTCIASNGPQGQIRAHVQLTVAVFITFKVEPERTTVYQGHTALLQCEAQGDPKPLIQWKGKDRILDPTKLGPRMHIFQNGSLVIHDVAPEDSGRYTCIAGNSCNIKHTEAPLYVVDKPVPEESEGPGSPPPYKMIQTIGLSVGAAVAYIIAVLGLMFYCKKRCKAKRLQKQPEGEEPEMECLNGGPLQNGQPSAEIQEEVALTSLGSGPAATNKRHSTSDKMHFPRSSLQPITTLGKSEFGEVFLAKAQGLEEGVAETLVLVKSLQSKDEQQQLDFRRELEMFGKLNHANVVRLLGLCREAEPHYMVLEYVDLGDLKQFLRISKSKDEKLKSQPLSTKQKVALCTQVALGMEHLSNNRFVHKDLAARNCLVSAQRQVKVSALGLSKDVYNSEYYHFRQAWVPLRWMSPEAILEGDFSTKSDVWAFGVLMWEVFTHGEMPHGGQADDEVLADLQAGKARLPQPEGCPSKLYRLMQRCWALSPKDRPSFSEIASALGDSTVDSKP

[2] = molecular target: T2, human Fc receptor protein CD16a (human, UniProt P08637 17-208, biotinylated); assay: BLI (ForteBio), biotinylated receptor on SA sensor, antibody in solution
T2 construct: Biotinylated protein captured on SA sensors
Excerpt: (§1) The dynamic affinity of the antibodies 101A6HZ, 101A6HZm and Hu24 with human Fc receptor proteins CD16a, CD32a, CD32b, CD64 and FcRn was detected through ForteBio (Pall life sciences).

[3] = molecular target: T3, human Fc receptor protein CD32a (human, UniProt P12318 34-217, biotinylated); assay: as above
T3 construct: Biotinylated protein captured on SA sensors
T3 sequence (looked up): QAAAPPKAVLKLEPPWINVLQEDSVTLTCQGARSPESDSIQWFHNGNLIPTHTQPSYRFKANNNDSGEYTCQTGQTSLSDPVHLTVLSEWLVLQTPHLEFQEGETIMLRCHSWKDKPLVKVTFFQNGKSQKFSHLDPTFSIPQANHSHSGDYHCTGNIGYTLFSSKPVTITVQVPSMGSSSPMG
Excerpt: as §1

[4] = molecular target: T4, human Fc receptor protein CD32b (human, UniProt P31994 43-217, biotinylated); assay: as above
T4 construct: Biotinylated protein captured on SA sensors
T4 sequence (looked up): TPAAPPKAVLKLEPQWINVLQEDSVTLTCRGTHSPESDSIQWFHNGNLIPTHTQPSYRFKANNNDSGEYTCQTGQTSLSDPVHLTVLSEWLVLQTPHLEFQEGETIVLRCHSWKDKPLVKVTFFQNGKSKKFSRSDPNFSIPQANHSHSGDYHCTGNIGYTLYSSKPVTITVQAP
Excerpt: as §1

[5] = molecular target: T5, human Fc receptor protein CD64 (human, UniProt P12314 16-292, limits assumed, biotinylated); assay: as above
T5 construct: Biotinylated protein captured on SA sensors
Excerpt: as §1

[6] = molecular target: T6, human Fc receptor protein FcRn (human, UniProt P55899 24-297; P61769 21-119, biotinylated); assay: BLI (ForteBio), biotinylated receptor on SA sensor, antibody from 5,000 nM, 1:1 global fit
T6 construct: Biotinylated protein captured on SA sensors
Excerpt: as §1

[7] = molecular target: T1, human PTK7 on cells (tumor cells …); assay: cell-based or functional assay; remark: listed apart in the source
[8] = molecular target: T1, human PTK7 on cells (tumor cells …); assay: flow cytometry on CHO-hPTK7 overexpression cells
Excerpt: A flow cytometer (Beckman, Cytoflex) was used for detecting the affinity of the anti-human PTK7 chimeric and humanized antibodies with human non-small cell lung cancer cells H1299, human lung adenocarcinoma cells H1975, human breast cancer cells T47D, human ovarian cancer cells OVCAR-3 (all purchased from NANJING COBIOER BIOSCIENCES CO., LTD) and CHO-hPTK7 overexpression cells.
The adherent cells were digested by using a pancreatin (Gibco) solution; a proper amount of cells were counted and taken, washed twice by using 1×PBS, and re-suspended in a 1% BSA solution; and then the cells were transferred into a 96-well deep plate at a density of 50 μl/well; a candidate antibody was diluted by using 1% BSA, then 50 μl of diluted antibody was added into the deep plate containing the cells, and incubated for 40 min at 4° C.; the cells were washed twice by using PBS, then 50 μl of diluted secondary antibody was added into each well, uniformly mixed, and incubated for 30 min at 4° C.; and the cells were washed twice by using PBS, then re-suspended in 400 μl of PBS, and subjected to examination by flow cytometer.

[9] = molecular target: T7, monkey PTK7 protein (extracellular sequence of monkey PTK7 with C-terminal 6×His tag) (monkey); assay: BLI (ForteBio), antibody on Protein A sensor, monkey PTK7 protein in solution
T7 chain: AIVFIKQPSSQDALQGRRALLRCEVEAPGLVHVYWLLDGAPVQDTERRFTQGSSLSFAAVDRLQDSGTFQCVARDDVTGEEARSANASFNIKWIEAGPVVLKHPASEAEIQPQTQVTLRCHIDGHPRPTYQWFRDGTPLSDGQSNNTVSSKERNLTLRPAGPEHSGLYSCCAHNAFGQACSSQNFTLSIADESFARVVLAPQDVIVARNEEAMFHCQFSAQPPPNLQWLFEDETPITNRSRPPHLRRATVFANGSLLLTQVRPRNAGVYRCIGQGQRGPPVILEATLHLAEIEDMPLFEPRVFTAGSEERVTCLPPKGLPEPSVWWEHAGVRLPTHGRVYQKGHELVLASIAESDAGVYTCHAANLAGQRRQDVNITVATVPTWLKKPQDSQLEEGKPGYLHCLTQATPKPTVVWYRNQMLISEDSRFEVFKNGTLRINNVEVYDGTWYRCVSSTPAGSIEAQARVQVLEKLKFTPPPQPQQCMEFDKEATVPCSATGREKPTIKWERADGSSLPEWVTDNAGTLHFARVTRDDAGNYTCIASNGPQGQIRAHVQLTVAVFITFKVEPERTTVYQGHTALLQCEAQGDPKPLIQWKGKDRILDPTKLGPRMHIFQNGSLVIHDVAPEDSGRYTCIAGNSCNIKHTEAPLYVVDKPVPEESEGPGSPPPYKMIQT
Excerpt: (§2) The dynamic affinity of the control Hu24 and candidate antibodies 64A10HZ, 101A6HZ, 4E12HZ and 19C2HZ with human PTK7-His was detected by using ForteBio (Pall life sciences).
ELISA and ForteBio were adopted to detect binding of the anti-human PTK7 chimeric and humanized antibodies to the monkey, mouse and rat PTK7 proteins.

[10] = molecular target: T8, human PTK7 protein (extracellular sequence of human PTK7 with C-terminal 6×His tag) (human, UniProt Q13308 31-704); assay: BLI (ForteBio), antibody on Protein A sensor, human PTK7-His 200-3.125 nM, 1:1 global fit
T8 construct: extracellular domain; Expressed transiently in HEK293 cells; also called human PTK7-His; human PTK7-His protein
T8 sequence: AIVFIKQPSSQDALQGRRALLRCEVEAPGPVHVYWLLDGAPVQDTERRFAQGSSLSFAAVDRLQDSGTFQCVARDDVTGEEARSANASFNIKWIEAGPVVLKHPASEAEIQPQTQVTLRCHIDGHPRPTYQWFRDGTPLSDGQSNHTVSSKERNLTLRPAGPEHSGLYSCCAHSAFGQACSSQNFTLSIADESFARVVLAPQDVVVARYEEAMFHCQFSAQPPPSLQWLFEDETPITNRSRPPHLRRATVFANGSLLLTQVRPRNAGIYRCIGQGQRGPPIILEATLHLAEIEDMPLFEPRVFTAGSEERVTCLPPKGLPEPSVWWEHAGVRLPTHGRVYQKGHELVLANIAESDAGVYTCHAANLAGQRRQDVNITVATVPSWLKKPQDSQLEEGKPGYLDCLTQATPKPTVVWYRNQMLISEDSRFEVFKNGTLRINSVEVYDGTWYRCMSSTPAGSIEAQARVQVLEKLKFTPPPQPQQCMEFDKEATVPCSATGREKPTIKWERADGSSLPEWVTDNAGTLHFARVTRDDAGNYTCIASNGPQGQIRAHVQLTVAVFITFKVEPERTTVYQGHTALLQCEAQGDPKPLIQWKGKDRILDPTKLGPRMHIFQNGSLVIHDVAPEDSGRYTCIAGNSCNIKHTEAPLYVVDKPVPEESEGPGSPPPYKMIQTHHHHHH
Excerpt: as §2

[11] = molecular target: T1, human PTK7 on cells (tumor cells …); assay: competition flow cytometry on 293T-hPTK7 cells, streptavidin-PE; competitor: biotin-labelled 4E12HZ
[12] = molecular target: T1, human PTK7 on cells (tumor cells …); assay: competition flow cytometry on 293T-hPTK7 cells, streptavidin-PE; competitor: biotin-labelled Hu24
[13] = molecular target: T1, human PTK7 on cells (tumor cells …); assay: competition flow cytometry on 293T-hPTK7 cells, streptavidin-PE; competitor: biotin-labelled 19C2HZ

T6 sequence (P55899 24-297 limits assumed, form in doubt, chain 1 of 2): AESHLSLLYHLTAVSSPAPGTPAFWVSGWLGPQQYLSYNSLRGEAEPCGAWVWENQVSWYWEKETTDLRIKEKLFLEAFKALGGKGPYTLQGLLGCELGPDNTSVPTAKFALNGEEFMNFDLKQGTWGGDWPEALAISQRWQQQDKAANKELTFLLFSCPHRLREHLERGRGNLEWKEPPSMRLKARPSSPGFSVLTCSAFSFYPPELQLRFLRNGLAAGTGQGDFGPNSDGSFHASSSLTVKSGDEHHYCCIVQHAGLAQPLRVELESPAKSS
T6 sequence (P61769 21-119 limits assumed, form in doubt, chain 2 of 2): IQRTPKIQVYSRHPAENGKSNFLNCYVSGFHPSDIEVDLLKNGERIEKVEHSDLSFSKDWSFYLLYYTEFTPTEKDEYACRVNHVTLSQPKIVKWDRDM
T5 sequence (P12314 16-292 limits assumed): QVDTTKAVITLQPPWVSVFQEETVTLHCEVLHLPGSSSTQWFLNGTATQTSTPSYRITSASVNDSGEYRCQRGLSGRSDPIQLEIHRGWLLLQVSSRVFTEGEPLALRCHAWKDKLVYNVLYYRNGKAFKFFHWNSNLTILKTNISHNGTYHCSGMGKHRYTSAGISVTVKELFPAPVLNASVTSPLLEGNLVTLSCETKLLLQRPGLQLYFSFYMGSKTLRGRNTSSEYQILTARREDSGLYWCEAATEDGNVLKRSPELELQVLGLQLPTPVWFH
T2 sequence (P08637 17-208 limits assumed): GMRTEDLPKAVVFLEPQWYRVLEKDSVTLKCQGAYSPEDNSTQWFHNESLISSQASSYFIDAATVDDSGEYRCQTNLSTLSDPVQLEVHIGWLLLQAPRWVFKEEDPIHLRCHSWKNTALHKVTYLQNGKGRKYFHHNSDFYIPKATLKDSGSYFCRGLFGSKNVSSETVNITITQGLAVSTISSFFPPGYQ

B1: 101A6HZm (101A6HZ with mutant human heavy chain constant region IgG1m) (antibody)
heavy: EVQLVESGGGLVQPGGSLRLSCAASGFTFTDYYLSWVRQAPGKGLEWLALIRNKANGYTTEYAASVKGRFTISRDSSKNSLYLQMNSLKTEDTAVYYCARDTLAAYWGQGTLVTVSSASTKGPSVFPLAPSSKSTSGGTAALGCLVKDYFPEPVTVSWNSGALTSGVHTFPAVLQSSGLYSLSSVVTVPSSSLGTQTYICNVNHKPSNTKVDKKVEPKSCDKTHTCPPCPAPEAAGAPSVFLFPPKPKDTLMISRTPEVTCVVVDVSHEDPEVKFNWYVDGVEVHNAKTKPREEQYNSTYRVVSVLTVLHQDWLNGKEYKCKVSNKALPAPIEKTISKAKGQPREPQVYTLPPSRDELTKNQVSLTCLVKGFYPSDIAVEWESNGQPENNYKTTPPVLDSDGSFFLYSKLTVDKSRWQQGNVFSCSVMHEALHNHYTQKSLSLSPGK
light: DIVMTQSPDSLAVSLGERATINCKASQDVGSAVIWYQQKPGQSPKLLIYWASTRHTGVPDRFSGSGSGTDFTLTISSLQAEDVAVYYCQQYSSYPLTFGQGTKLEIKRTVAAPSVFIFPPSDEQLKSGTASVVCLLNNFYPREAKVQWKVDNALQSGNSQESVTEQDSKDSTYSLSSTLTLSKADYEKHKVYACEVTHQGLSSPVTKSFNRGEC
notes: light chain as in 101A6HZ; also called anti-human PTK7 humanized mutant antibody
Cell endocytosis, EC50, A431 cells [1]: 0.0732 mg/L | Cell endocytosis, EC50, HCC1806 cells [1]: 0.0576 mg/L | Cell endocytosis, EC50, NCI-H358 cells [1]: 0.0729 mg/L | Cell endocytosis, EC50, OVCAR3 cells [1]: 0.0665 mg/L | binding result [2]: no binding (tested: initial concentration of 5,000 nM) | binding result [3]: no binding (tested: initial concentration of 5,000 nM) | binding result [4]: no binding (tested: initial concentration of 5,000 nM) | binding result [5]: no binding (tested: initial concentration of 5,000 nM) | Kd [6]: 16.6 nM

B2: 4E12HZ (anti-human PTK7 humanized antibody) (antibody, human IgG1, kappa, V domains shown)
VH: QVQLVQSGAEVKRPGASVKVSCKTSGYTFTDYAMHWVRQAPGKGLEWIGVISTYYGNVSYNQKFKGRVTMTRDTSTSTVYMELSSLTSEDTAIYYCARGFAYWGQGTLVTVSS
VL: DIVITQTELSLPVTPGERASISCRSSKSLQKKDGKTYLNWFLQKPGQSPQLLIYLMSTRASGVSDRFSGSGSGTDFTLKISRVEAEDVGVYYCQQLVEYPFTFGQGTKLEIKR
notes: Human IgG1 heavy chain constant region and human Kappa light chain constant region
FADU cell endocytosis activity, EC50 [7]: 0.147 mg/L | EC50 [8]: 0.0414 mg/L | Kd [9]: 9.68 nM | Kd [10]: 22 nM | koff [10]: 0.00534 s⁻¹ | kon [10]: 243000 M⁻¹ s⁻¹ | IC50 (read off the curve) [11]: ~0.1 mg/L

B3: 19C2HZ (anti-human PTK7 humanized antibody) (antibody, human IgG1, kappa, V domains shown)
VH: QVTLKESGPTLVKPTQTLTLTCTFSGFSLSTSGMGINWIRQPPGKALEWLALIWWDDDKYYNPSLKNRLTITKDTSKNQVVLTMTNMDPVDTATYYCARSLITTAPSDYWGQGTLVTVSS
VL: DIQMTQSPSSLSASVGDRVTITCKASQNVGTAITWYQQRPGKAPKLLIYSASNRYTGVPSRFSGSGSGTDFTLTISNLQPEDLATYFCLQYSDYPLTFGQGTRLEIKR
notes: as for B2
FADU cell endocytosis activity, EC50 [7]: 0.134 mg/L | EC50 [8]: 0.201 mg/L | Kd [9]: 0.092 nM | Kd [10]: 3.7 nM | koff [10]: 0.000728 s⁻¹ | kon [10]: 197000 M⁻¹ s⁻¹ | IC50 (read off the curve) [12]: ~0.6 mg/L | IC50 (read off the curve) [13]: ~0.8 mg/L
